Our source for the stoichiometry N values is PMC11335228.

Where “and” joins values, the source holds several entries; their conditions need not be identical. Identical values can stand only once.

Common to all, as to conditions: remark: other sources report otherwise
Assay [1] has as its target T1, DAP12, endogenous in macrophage-like differentiated THP-1 cells (human (endogenous in THP-1)), O43914. Nature of the assay: non-reducing SDS-PAGE and western immunoblotting; membranes of differentiated THP-1 cells (wt and TREM2 ko; with or without MG132, lactacystin or chloroquine for 4 h); SDS sample buffer without DTT, 5 min 95 °C. Background: Immunoblotting shows a protein as a band on a membrane.

Assay [2] concerns the target T1, DAP12, endogenous in macrophage-like …. The description is as above. This is another data set of the same source.
The target of assay [3] is T2, DNAX-activating protein of 12 kDa (DAP12) wt, overexpressed in HEK293 cells, O43914. Nature of the assay: SDS-PAGE and western immunoblotting; HEK293 cells transiently expressing DAP12 wt or DAP12 D50A with or without TREM2 (blots of Fig. 5A); SDS resistant oligomers.
In assay [4] the target is T2, DNAX-activating protein of 12 kDa …. Nature of the assay: SDS-PAGE and western immunoblotting; membranes of HEK293 Flp-In cells stably overexpressing DAP12 alone or with TREM2 wt or TREM2 K186N; with or without proteasome inhibitors (Suppl. Figure S3).

B1: DAP12, endogenous in macrophage-like differentiated THP-1 cells, O43914 22-113 (natural protein)
chain: LRPVQAQAQSDCSCSTVSPGVLAGIVMGDLVLTVLIALAVYFLGRLVPRGRGAAEAATRKQRITETESPYQELQGQRSDVYSDLNTQRPYYK
One may read the stoichiometry N as a count of units in the complex or per binding partner. In the case of B1, the stoichiometry N in assay [1] worked out at 2; in assay [2], 3.

B2: DNAX-activating protein of 12 kDa (DAP12) wt, overexpressed in HEK293 cells, O43914 22-113 (natural protein)
chain: LRPVQAQAQSDCSCSTVSPGVLAGIVMGDLVLTVLIALAVYFLGRLVPRGRGAAEAATRKQRITETESPYQELQGQRSDVYSDLNTQRPYYK
B2: the stoichiometry N was 3 and 4 in assay [3]; 2 and 3 in assay [4].
